Experimental data reported in IntAct's records for PubMed 18022368.

B1: MAD2L1-binding protein (Homo sapiens), Q15013 (parent)
chain: MAAPEAEVLSSAAVPDLEWYEKSEETHASQIELLETSSTQEPLNASEAFCPRDCMVPVVFPGPVSQEGCCQFTCELLKHIMYQRQQLPLPYEQLKHFYRKPSPQAEEMLKKKPRATTEVSSRKCQQALAELESVLSHLEDFFARTLVPRVLILLGGNALSPKEFYELDLSLLAPYSVDQSLSTAACLRRLFRAIFMADAFSELQAPPLMGTVVMAQGHRNCGEDWFRPKLNYRVPSRGHKLTVTLSCGRPSIRTTAWEDYIWFQAPVTFKGFRE

Variants of: B1
Conditions: with md2l1_human MAD2L1, Q13257
md2l1_human MAD2L1, Q13257, sequence (Q13257 whole entry): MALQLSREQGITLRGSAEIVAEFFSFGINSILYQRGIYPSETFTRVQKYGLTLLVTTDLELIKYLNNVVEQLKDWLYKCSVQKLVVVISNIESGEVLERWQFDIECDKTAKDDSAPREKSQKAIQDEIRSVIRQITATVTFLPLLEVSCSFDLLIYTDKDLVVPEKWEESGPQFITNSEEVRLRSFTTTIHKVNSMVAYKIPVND

Effect of a mutation on the interaction, decreasing interaction:
Q83A;F191A
Q83A
F191A
